Each block holds one molecule with its values, some of them ahead of it. Bridge positions count the residues as written; N and C are the ends. Square brackets hold non-standard residues; d marks the D form. 2Nal = N[C@@H](Cc1ccc2ccccc2c1)C(=O)O; S5 = C=CCCC[C@](C)(N)C(=O)O; βAla = NCCC(=O)O
Legend:
[1] = target: β-catenin protein (ALPHA screening assay) (UniProt P35222); assay: ALPHA screen: biotinylated peptide on streptavidin donor beads, β-catenin on protein A acceptor beads via anti-β-catenin antibody
[2] = target: T1, β-catenin in cells (LEF/TCF-bla HCT-116 reporter cells; Colo320DM cells) (UniProt P35222 2-781, limits assumed); assay: cell-based or functional assay
T1 sequence (looked up): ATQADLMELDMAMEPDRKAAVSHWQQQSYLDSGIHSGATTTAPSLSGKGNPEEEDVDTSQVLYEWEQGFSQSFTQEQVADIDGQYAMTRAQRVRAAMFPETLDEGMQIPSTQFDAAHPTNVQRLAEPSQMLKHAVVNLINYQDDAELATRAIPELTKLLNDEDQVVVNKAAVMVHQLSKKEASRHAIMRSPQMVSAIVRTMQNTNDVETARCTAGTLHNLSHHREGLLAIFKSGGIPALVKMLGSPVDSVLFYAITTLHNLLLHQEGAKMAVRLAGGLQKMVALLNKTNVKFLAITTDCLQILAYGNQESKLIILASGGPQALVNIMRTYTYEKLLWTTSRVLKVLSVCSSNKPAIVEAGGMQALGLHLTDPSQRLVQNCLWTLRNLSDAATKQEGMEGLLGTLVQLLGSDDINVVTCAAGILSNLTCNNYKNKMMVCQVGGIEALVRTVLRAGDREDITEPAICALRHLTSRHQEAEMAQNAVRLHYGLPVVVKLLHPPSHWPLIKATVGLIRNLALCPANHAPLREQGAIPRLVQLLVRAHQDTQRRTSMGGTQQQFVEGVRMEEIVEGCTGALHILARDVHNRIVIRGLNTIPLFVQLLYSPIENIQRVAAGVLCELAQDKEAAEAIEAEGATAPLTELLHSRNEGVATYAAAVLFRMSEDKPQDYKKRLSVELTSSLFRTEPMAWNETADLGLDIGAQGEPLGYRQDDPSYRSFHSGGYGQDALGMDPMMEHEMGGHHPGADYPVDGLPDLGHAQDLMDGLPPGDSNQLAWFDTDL

[3] = target: T1, β-catenin in cells (LEF/TCF-bla HCT-116 …); assay: cell-based or functional assay; remark: listed apart in the source
[4] = target: T2, Histidine-tagged β-catenin (HTRF assay) (UniProt P35222 1-781, limits assumed); assay: HTRF assay (Cisbio): biotin-labeled peptide, His-tagged β-catenin, Eu-labeled anti-His antibody and SA-XL665
T2 construct: also called His-tag protein; not shown: histidine tag
T2 sequence (looked up): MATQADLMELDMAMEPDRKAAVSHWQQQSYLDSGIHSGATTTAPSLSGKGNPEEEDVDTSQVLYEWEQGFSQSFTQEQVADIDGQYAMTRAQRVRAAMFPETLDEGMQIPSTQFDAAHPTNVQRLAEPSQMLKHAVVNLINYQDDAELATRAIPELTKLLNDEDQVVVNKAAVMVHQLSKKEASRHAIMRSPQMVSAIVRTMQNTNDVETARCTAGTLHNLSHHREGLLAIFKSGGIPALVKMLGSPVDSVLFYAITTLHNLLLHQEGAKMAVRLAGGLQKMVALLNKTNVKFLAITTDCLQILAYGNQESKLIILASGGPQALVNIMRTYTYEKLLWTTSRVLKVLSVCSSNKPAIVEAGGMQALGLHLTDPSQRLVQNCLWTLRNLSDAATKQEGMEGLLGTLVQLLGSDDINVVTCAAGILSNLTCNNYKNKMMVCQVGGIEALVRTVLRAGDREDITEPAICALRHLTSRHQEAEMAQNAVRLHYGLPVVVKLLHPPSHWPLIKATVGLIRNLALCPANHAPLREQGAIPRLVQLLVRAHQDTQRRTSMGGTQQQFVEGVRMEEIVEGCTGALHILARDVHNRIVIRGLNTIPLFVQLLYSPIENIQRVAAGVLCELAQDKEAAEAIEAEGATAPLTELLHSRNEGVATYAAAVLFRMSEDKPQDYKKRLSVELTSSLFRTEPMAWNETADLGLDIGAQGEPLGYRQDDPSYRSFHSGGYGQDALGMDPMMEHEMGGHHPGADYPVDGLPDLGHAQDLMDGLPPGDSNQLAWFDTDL

[5] = target: T3, β-catenin protein (ALPHA screening assay) (UniProt P35222 1-781, limits assumed); assay: ALPHA screen: biotinylated peptide on streptavidin donor beads, β-catenin on protein A acceptor beads via anti-β-catenin antibody
T3 sequence (looked up): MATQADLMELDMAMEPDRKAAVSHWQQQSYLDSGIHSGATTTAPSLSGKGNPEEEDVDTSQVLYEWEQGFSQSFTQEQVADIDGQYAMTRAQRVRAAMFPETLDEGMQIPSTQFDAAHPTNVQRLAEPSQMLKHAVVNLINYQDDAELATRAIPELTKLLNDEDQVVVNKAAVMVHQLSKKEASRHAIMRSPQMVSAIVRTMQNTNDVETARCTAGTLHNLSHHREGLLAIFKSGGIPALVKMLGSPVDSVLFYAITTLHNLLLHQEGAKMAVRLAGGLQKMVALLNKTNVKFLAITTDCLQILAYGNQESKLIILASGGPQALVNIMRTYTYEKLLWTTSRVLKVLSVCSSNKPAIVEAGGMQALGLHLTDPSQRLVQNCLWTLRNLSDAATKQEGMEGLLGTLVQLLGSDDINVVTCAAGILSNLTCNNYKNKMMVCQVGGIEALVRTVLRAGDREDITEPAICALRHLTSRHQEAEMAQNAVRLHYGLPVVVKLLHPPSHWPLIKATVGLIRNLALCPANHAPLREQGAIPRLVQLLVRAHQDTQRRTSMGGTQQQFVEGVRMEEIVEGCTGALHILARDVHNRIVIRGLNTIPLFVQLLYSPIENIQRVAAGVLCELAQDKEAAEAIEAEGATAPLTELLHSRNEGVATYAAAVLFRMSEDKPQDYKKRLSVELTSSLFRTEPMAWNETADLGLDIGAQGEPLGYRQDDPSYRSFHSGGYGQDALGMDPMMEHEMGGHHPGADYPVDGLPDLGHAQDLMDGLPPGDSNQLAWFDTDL

- Kd [1]: 20 nM
- signal versus background ratio [1]: 180 fold
Molecule: full-length HD2 domain of human BCL9 protein (peptide)

- IC50, cell-based Wnt transcription inhibition assay, acetate salt form of WX-024 [2]: 292 nM
- IC50, cell-based Wnt transcription inhibition assay, hydrochloric salt of WX-024 [2]: 313 nM
- IC50, GeneBLAzer beta-lactamase reporter assay, LEF-TCF-bla HCT116 cells [3]: 191 nM
B1: WX-024 (peptide)
peptide: Ac-LQTLR[S5]IQR[S5]L[2Nal]-NH2
modifications: staple 6-10; also: tested as trifluoroacetic, acetate and hydrochloric salts

- Kd [4]: 4.21 nM
B2: WX-024 (conjugated with biotin) (peptide)
peptide: Ac-LQTLR[S5]IQR[S5]L[2Nal]-NH2
modifications: staple 6-10; also: coupled to biotin (site not given here)
notes: also called biotinylated WX-024; BCL9 peptide labeled with biotin

- IC50, Wnt transcription assay (GeneBLAzer reporter, procedures of Example 4.1) [2]: 1580 nM
B3: WX-020 (peptide)
peptide: Ac-LR[S5]IQR[S5]L-NH2
modifications: staple 3-7
SMILES: CC[C@H](C)[C@@H]1NC(=O)[C@@](C)(NC(=O)[C@H](CCCNC(=N)N)NC(=O)[C@H](CC(C)C)NC(C)=O)CCCC=CCCC[C@@](C)(C(=O)N[C@@H](CC(C)C)C(N)=O)NC(=O)[C@H](CCCNC(=N)N)NC(=O)[C@H](CCC(N)=O)NC1=O
- IC50, CellTiterGlo cell viability assay, Colo320DM cells [2]: 12400 nM

- IC50, GeneBLAzer beta-lactamase reporter assay, LEF/TCF-bla HCT-116 cells [2]: 764 nM
B4: WX-021 (peptide)
peptide: Ac-LR[S5]IQR[S5]L[2Nal][βAla][βAla]-NH2
modifications: staple 3-7
SMILES: CC[C@H](C)[C@@H]1NC(=O)[C@@](C)(NC(=O)[C@H](CCCNC(=N)N)NC(=O)[C@H](CC(C)C)NC(C)=O)CCCC=CCCC[C@@](C)(C(=O)N[C@@H](CC(C)C)C(=O)N[C@@H](Cc2ccc3ccccc3c2)C(=O)NCCC(=O)NCCC(N)=O)NC(=O)[C@H](CCCNC(=N)N)NC(=O)[C@H](CCC(N)=O)NC1=O

- Kd [5]: 80 nM
B5: WX-020, biotinylated (ALPHA screen) (peptide)
peptide: Ac-LR[S5]IQR[S5]L-NH2
modifications: staple 3-7; also: biotinylated with a PEG linker, site not given here
notes: The general description of the ALPHA assay says that a biotinylated polypeptide is used

From patent publication US20210292385A1 (WNTRX PHARMACEUTICALS, published 2021)
